{"source": "patent US20050032694A1", "target": "rat agrin (the transmembrane isoform Y4, Z8) (rat) (UniProt P25304)", "sequence (P25304 whole entry, the tested form may be a part, canonical isoform)": "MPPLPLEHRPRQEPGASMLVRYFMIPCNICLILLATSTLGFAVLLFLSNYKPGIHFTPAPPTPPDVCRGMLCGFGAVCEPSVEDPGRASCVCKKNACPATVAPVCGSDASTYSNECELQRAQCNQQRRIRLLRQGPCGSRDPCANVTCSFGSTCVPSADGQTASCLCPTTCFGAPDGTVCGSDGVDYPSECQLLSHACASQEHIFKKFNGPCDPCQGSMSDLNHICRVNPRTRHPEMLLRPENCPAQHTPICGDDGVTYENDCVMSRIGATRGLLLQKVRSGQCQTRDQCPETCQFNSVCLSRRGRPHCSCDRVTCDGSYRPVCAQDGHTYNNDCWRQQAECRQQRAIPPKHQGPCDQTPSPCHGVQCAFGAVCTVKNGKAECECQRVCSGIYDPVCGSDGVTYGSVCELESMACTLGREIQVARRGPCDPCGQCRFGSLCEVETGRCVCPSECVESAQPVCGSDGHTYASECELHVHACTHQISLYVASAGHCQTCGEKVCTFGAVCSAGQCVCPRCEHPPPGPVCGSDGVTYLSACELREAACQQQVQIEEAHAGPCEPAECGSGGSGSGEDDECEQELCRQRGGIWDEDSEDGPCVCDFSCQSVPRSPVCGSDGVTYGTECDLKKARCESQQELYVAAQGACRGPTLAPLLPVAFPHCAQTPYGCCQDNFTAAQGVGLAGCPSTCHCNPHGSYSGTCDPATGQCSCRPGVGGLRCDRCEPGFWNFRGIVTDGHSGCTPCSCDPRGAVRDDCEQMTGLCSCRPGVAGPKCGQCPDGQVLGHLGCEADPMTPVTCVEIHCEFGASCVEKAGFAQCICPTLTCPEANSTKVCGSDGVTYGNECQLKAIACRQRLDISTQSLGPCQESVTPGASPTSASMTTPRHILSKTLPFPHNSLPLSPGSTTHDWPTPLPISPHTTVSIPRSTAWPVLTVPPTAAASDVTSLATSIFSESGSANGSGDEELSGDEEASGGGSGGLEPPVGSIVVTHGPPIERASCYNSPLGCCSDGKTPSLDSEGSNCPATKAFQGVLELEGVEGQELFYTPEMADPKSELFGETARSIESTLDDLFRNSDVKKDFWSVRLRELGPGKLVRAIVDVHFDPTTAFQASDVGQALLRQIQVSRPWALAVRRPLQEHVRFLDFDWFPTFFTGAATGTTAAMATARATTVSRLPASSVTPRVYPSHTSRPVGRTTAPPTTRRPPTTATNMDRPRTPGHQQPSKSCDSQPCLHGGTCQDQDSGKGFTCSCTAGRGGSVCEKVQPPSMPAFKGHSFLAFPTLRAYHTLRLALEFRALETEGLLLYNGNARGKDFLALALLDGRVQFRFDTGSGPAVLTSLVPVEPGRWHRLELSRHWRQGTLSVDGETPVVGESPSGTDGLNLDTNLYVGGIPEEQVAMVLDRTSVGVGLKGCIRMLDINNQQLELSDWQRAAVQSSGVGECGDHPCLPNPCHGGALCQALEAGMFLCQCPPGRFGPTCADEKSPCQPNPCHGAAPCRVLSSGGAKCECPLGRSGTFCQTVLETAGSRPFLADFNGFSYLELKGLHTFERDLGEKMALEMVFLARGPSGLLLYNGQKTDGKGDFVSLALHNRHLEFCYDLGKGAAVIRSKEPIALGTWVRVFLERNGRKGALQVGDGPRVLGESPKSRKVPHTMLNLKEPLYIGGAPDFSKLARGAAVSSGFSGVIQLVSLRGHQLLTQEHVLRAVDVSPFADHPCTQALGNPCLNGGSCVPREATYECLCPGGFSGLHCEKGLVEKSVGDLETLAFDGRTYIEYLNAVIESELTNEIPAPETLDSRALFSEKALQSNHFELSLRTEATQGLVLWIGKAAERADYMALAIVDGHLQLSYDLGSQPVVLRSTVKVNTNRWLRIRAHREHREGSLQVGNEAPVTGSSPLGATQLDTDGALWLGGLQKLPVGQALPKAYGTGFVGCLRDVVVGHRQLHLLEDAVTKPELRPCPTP", "test": "cell-based or functional assay", "data": [{"substance": "neurotrypsin of the mouse (compound of the formula II) (from UniProt O08762 22-761) (enzyme)", "values": [{"measurement": "soluble agrin fragment in culture medium of co-transfected HEK293T cells (Western blot)", "value": 100, "unit": "kDa"}]}]}
